Experimental data published in PMC3637433 (The FEBS journal, 2013).
Read-outs that look alike come from different tables or passages of the source. Square brackets hold non-standard residues; d marks the D form. Ends that are not written are not given here. sY = N[C@@H](Cc1ccc(OS(=O)(=O)O)cc1)C(=O)O

Columns and labels:
RANTES = molecular target: T1, RANTES (Homo sapiens, UniProt P13501, E89S); assay: 1H-15N-HSQC NMR titration of U-15N-RANTES; assay type: binding; conditions: 293 K, pH 4.8; peptide up to 2.9 mM, 64 molar excess relative to RANTES; KD could not be extracted
T1 sequence (P13501 24-91 E89S): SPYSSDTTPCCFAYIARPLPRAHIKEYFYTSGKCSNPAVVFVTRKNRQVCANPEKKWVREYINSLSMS

[1] = molecular target: RANTES (E66S mutant of human RANTES) (human); assay: 1H-15N-HSQC, intensities of monomer and dimer cross-peaks
[2] = molecular target: RANTES (E66S mutant of human RANTES) (human); assay: as above; remark: listed apart in the source
[3] = molecular target: RANTES (E66S mutant of human RANTES) (human); assay: as above; remark: listed apart in the source
[4] = molecular target: RANTES (E66S mutant of human RANTES) (human); assay: as above; remark: listed apart in the source
[5] = molecular target: RANTES (E66S mutant of human RANTES) (human); assay: as above; remark: listed apart in the source
[6] = molecular target: CCR5 N-terminal peptide (Nt-CCR5) N-terminus (Homo sapiens) (UniProt P51681); conditions: cited from earlier work
[7] = molecular target: RANTES (E66S mutant of human RANTES) (human); assay: NMR titration
[8] = molecular target: RANTES (E66S mutant of human RANTES) (human); assay: NMR titration; remark: listed apart in the source
[9] = molecular target: RANTES (E66S mutant of human RANTES) (human); assay: NMR titration; remark: listed apart in the source

Sequence of CCR5 N-terminal peptide (Nt-CCR5) N-terminus (Homo sapiens) (P51681 1-27): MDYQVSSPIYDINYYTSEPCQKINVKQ

TRSQKEGLHYTSSSHFPYSQYQ [ECL2]
Saturation of RANTES chemical shift changes on titration (RANTES): saturation was not achieved

RANTES (E66S mutant of human RANTES) (ligand)
ratio of monomer/dimer peak intensities, IM/ID [1]: 0.13
ratio of monomer/dimer peak intensities, IM/ID [2]: 0.45
stoichiometry N [2]: 2
ratio of monomer/dimer peak intensities, IM/ID [3]: 1.57
ratio of monomer/dimer peak intensities, IM/ID [4]: 0.2
ratio of monomer/dimer peak intensities, IM/ID [5]: < 0.1

RANTES (from UniProt P13501)
Kd [6]: 1 µM

MDYQVSSPI[sY]DIN[sY]YTSEPAQKINVKQ [Nt-CCR5 peptide (CCR5 residues 1-27), sulfated at Y10 and Y14]
Kd [7]: 100 µM
Kd [8]: 84 µM
Kd [9]: 16 µM
